{"source": "paper PMC4116150", "molecules": {"B1": {"name": "YdiI (Escherichia coli K-12) (protein)", "chain": "MIWKRKITLEALNAMGEGNMVGFLDIRFEHIGDDTLEATMPVDSRTKQPFGLLHGGASVVLAESIGSVAGYLCTEGEQKVVGLEINANHVRSAREGRVRGVCKPLHLGSRHQVWQIEIFDEKGRLCCSSRLTTAIL"}, "B2": {"name": "YdiI (Escherichia coli K-12; V68M) (protein)", "chain": "B1 chain with V68M"}, "B3": {"name": "YbdB (Escherichia coli K-12) (protein)", "chain": "MIWKRHLTLDELNATSDNTMVAHLGIVYTRLGDDVLEAEMPVDTRTHQPFGLLHGGASAALAETLGSMAGFMMTRDGQCVVGTELNATHHRPVSEGKVRGVCQPLHLGRQNQSWEIVVFDEQGRRCCTCRLGTAVLG"}}, "assay_in_all_cases": "purified protein", "key": {"[1]": {"system": "CC(C)(COP(=O)(O)OP(=O)(O)OC[C@H]1O[C@@H](n2cnc3c(N)ncnc32)[C@H](O)[C@@H]1OP(=O)(O)O)[C@@H](O)C(=O)NCCC(=O)NCCSC(=O)c1cc(O)c2ccccc2c1O", "settings": "50 mM K+HEPES pH 7.5, 1 mM DTNB, 25 °C"}, "[2]": {"system": "CC(C)(COP(=O)(O)OP(=O)(O)OC[C@H]1O[C@@H](n2cnc3c(N)ncnc32)[C@H](O)[C@@H]1OP(=O)(O)O)[C@@H](O)C(=O)NCCC(=O)NCCSC(=O)c1ccccc1", "settings": "50 mM K+HEPES pH 7.5, 1 mM DTNB, 25 °C"}, "[3]": {"system": "CCCCCCCCCCCC(=O)SCCNC(=O)CCNC(=O)[C@H](O)C(C)(C)COP(=O)(O)OP(=O)(O)OC[C@H]1O[C@@H](n2cnc3c(N)ncnc32)[C@H](O)[C@@H]1OP(=O)(O)O", "settings": "50 mM K+HEPES pH 7.5, 1 mM DTNB, 25 °C"}, "[4]": {"substrate": "CC(C(=O)O)C(=O)SCCNC(=O)CCNC(=O)[C@H](O)C(C)(C)COP(=O)(O)OP(=O)(O)OC[C@H]1O[C@@H](n2cnc3c(N)ncnc32)[C@H](O)[C@@H]1OP(=O)(O)O", "settings": "50 mM K+HEPES pH 7.5, 1 mM DTNB, 25 °C"}, "[5]": {"substrate": "CC(C)(COP(=O)(O)OP(=O)(O)OC[C@H]1O[C@@H](n2cnc3c(N)ncnc32)[C@H](O)[C@@H]1OP(=O)(O)O)[C@@H](O)C(=O)NCCC(=O)NCCSC(=O)/C=C/c1ccc(O)cc1", "settings": "50 mM K+HEPES pH 7.5, 1 mM DTNB, 25 °C"}, "[6]": {"substrate": "CC(C)(COP(=O)(O)OP(=O)(O)OC[C@H]1O[C@@H](n2cnc3c(N)ncnc32)[C@H](O)[C@@H]1OP(=O)(O)O)[C@@H](O)C(=O)NCCC(=O)NCCSC(=O)c1cc(O)c2ccccc2c1O", "settings": "50 mM K+HEPES pH 7.5, 1 mM DTNB, 25 °C", "remark": "listed apart in the source"}, "[7]": {"substrate": "CC(C)(COP(=O)(O)OP(=O)(O)OC[C@H]1O[C@@H](n2cnc3c(N)ncnc32)[C@H](O)[C@@H]1OP(=O)(O)O)[C@@H](O)C(=O)NCCC(=O)NCCSC(=O)c1ccc(O)cc1", "settings": "50 mM K+HEPES pH 7.5, 25 °C"}, "[8]": {"substrate": "CC(C)(COP(=O)(O)OP(=O)(O)OC[C@H]1O[C@@H](n2cnc3c(N)ncnc32)[C@H](O)[C@@H]1OP(=O)(O)O)[C@@H](O)C(=O)NCCC(=O)NCCSC(=O)c1ccccc1", "settings": "50 mM K+HEPES pH 7.5, 1 mM DTNB, 25 °C", "remark": "listed apart in the source"}, "[9]": {"substrate": "CC(C)=CC(=O)SCCNC(=O)CCNC(=O)[C@H](O)C(C)(C)COP(=O)(O)OP(=O)(O)OC[C@H]1O[C@@H](n2cnc3c(N)ncnc32)[C@H](O)[C@@H]1OP(=O)(O)O", "settings": "50 mM K+HEPES pH 7.5, 1 mM DTNB, 25 °C"}, "[10]": {"substrate": "CCC(=O)SCCNC(=O)CCNC(=O)[C@H](O)C(C)(C)COP(=O)(O)OP(=O)(O)OC[C@H]1O[C@@H](n2cnc3c(N)ncnc32)[C@H](O)[C@@H]1OP(=O)(O)O", "settings": "50 mM K+HEPES pH 7.5, 1 mM DTNB, 25 °C"}, "[11]": {"substrate": "CCCCCC(=O)SCCNC(=O)CCNC(=O)[C@H](O)C(C)(C)COP(=O)(O)OP(=O)(O)OC[C@H]1O[C@@H](n2cnc3c(N)ncnc32)[C@H](O)[C@@H]1OP(=O)(O)O", "settings": "50 mM K+HEPES pH 7.5, 1 mM DTNB, 25 °C"}, "[12]": {"substrate": "CCCCCCCC/C=C\\CCCCCCCC(=O)SCCNC(=O)CCNC(=O)[C@H](O)C(C)(C)COP(=O)(O)OP(=O)(O)OC[C@H]1O[C@@H](n2cnc3c(N)ncnc32)[C@H](O)[C@@H]1OP(=O)(O)O", "settings": "50 mM K+HEPES pH 7.5, 1 mM DTNB, 25 °C"}, "[13]": {"substrate": "CCCCCCCCCCCC(=O)SCCNC(=O)CCNC(=O)[C@H](O)C(C)(C)COP(=O)(O)OP(=O)(O)OC[C@H]1O[C@@H](n2cnc3c(N)ncnc32)[C@H](O)[C@@H]1OP(=O)(O)O", "settings": "50 mM K+HEPES pH 7.5, 1 mM DTNB, 25 °C", "remark": "listed apart in the source"}, "[14]": {"substrate": "CCCCCCCCCCCCCC(=O)SCCNC(=O)CCNC(=O)[C@H](O)C(C)(C)COP(=O)(O)OP(=O)(O)OC[C@H]1O[C@@H](n2cnc3c(N)ncnc32)[C@H](O)[C@@H]1OP(=O)(O)O", "settings": "50 mM K+HEPES pH 7.5, 1 mM DTNB, 25 °C"}, "[15]": {"substrate": "CCCCCCCCCCCCCCCC(=O)SCCNC(=O)CCNC(=O)[C@H](O)C(C)(C)COP(=O)(O)OP(=O)(O)OC[C@H]1O[C@@H](n2cnc3c(N)ncnc32)[C@H](O)[C@@H]1OP(=O)(O)O", "settings": "50 mM K+HEPES pH 7.5, 1 mM DTNB, 25 °C"}, "[16]": {"substrate": "CCCCCCCCCCCC(=O)SCCNC(=O)CCNC(=O)[C@H](O)C(C)(C)COP(=O)(O)OP(=O)(O)OC[C@H]1O[C@@H](n2cnc3c(N)ncnc32)[C@H](O)[C@@H]1OP(=O)(O)O", "type": "biochemical, Escherichia coli", "settings": "50 mM K+HEPES pH 7.5, 1 mM DTNB, 25 °C"}}, "note": "Changes are numbered by the printed parent chain. Numbers in names are those of the source."}
{"molecule": "YbdB (Escherichia coli K-12; M68V)", "values": [{"measurement": "Km", "setting": "[1]", "result": "5.9 ± 0.6", "unit": "µM"}, {"measurement": "kcat", "setting": "[1]", "result": "0.16 ± 0.02", "unit": "s⁻¹"}, {"measurement": "kcat/Km", "setting": "[1]", "result": 27000, "unit": "M⁻¹ s⁻¹"}, {"measurement": "Km", "setting": "[2]", "result": "24 ± 2", "unit": "µM"}, {"measurement": "kcat", "setting": "[2]", "result": "1.8 ± 0.1", "unit": "s⁻¹"}, {"measurement": "kcat/Km", "setting": "[2]", "result": 75000, "unit": "M⁻¹ s⁻¹"}, {"measurement": "Km", "setting": "[3]", "result": "10.4 ± 0.3", "unit": "µM"}, {"measurement": "kcat", "setting": "[3]", "result": "0.046 ± 0.004", "unit": "s⁻¹"}, {"measurement": "kcat/Km", "setting": "[3]", "result": 4500, "unit": "M⁻¹ s⁻¹"}]}
{"molecule": "B1", "values": [{"measurement": "Km", "setting": "[4]", "result": "115 ± 7", "unit": "µM"}, {"measurement": "kcat", "setting": "[4]", "result": "0.67 ± 0.03", "unit": "s⁻¹"}, {"measurement": "kcat/Km", "setting": "[4]", "result": 5800, "unit": "M⁻¹ s⁻¹"}, {"measurement": "Km", "setting": "[5]", "result": "30 ± 2", "unit": "µM"}, {"measurement": "kcat", "setting": "[5]", "result": "8.4 ± 0.2", "unit": "s⁻¹"}, {"measurement": "kcat/Km", "setting": "[5]", "result": 280000, "unit": "M⁻¹ s⁻¹"}, {"measurement": "Km", "setting": "[6]", "result": "8 ± 1", "unit": "µM"}, {"measurement": "kcat", "setting": "[6]", "result": "1.6 ± 0.1", "unit": "s⁻¹"}, {"measurement": "kcat/Km", "setting": "[6]", "result": 200000, "unit": "M⁻¹ s⁻¹"}, {"measurement": "Km", "setting": "[7]", "result": "9 ± 1", "unit": "µM"}, {"measurement": "kcat", "setting": "[7]", "result": "5.2 ± 0.2", "unit": "s⁻¹"}, {"measurement": "kcat/Km", "setting": "[7]", "result": 580000, "unit": "M⁻¹ s⁻¹"}, {"measurement": "Km", "setting": "[8]", "result": "25 ± 3", "unit": "µM"}, {"measurement": "kcat", "setting": "[8]", "result": "17.7 ± 0.7", "unit": "s⁻¹"}, {"measurement": "kcat/Km", "setting": "[8]", "result": 710000, "unit": "M⁻¹ s⁻¹"}, {"measurement": "Km", "setting": "[9]", "result": "69.4 ± 0.4", "unit": "µM"}, {"measurement": "kcat", "setting": "[9]", "result": "0.5 ± 0.02", "unit": "s⁻¹"}, {"measurement": "kcat/Km", "setting": "[9]", "result": 7300, "unit": "M⁻¹ s⁻¹"}, {"measurement": "Km", "setting": "[10]", "result": "120 ± 10", "unit": "µM"}, {"measurement": "kcat", "setting": "[10]", "result": "0.21 ± 0.01", "unit": "s⁻¹"}, {"measurement": "kcat/Km", "setting": "[10]", "result": 1700, "unit": "M⁻¹ s⁻¹"}, {"measurement": "Km", "setting": "[11]", "result": "21 ± 1", "unit": "µM"}, {"measurement": "kcat", "setting": "[11]", "result": "0.3 ± 0.01", "unit": "s⁻¹"}, {"measurement": "kcat/Km", "setting": "[11]", "result": 14000, "unit": "M⁻¹ s⁻¹"}, {"measurement": "Km", "setting": "[12]", "result": "1.3 ± 0.1", "unit": "µM"}, {"measurement": "kcat", "setting": "[12]", "result": "0.12 ± 0.01", "unit": "s⁻¹"}, {"measurement": "kcat/Km", "setting": "[12]", "result": 92000, "unit": "M⁻¹ s⁻¹"}, {"measurement": "Km", "setting": "[13]", "result": "2.2 ± 0.1", "unit": "µM"}, {"measurement": "kcat", "setting": "[13]", "result": "0.74 ± 0.01", "unit": "s⁻¹"}, {"measurement": "kcat/Km", "setting": "[13]", "result": 330000, "unit": "M⁻¹ s⁻¹"}, {"measurement": "Km", "setting": "[14]", "result": "1.5 ± 0.2", "unit": "µM"}, {"measurement": "kcat", "setting": "[14]", "result": "0.62 ± 0.01", "unit": "s⁻¹"}, {"measurement": "kcat/Km", "setting": "[14]", "result": 410000, "unit": "M⁻¹ s⁻¹"}, {"measurement": "Km", "setting": "[15]", "result": "1.9 ± 0.1", "unit": "µM"}, {"measurement": "kcat", "setting": "[15]", "result": "0.58 ± 0.01", "unit": "s⁻¹"}, {"measurement": "kcat/Km", "setting": "[15]", "result": 300000, "unit": "M⁻¹ s⁻¹"}]}
{"molecule": "B2", "values": [{"measurement": "Km", "setting": "[16]", "result": "28 ± 2", "unit": "µM"}, {"measurement": "kcat", "setting": "[16]", "result": "0.77 ± 0.03", "unit": "s⁻¹"}, {"measurement": "kcat/Km", "setting": "[16]", "result": 28000, "unit": "M⁻¹ s⁻¹"}]}
{"molecule": "B3", "values": [{"measurement": "Km", "setting": "[5]", "result": "10 ± 1", "unit": "µM"}, {"measurement": "kcat", "setting": "[5]", "result": "0.82 ± 0.02", "unit": "s⁻¹"}, {"measurement": "kcat/Km", "setting": "[5]", "result": 82000, "unit": "M⁻¹ s⁻¹"}, {"measurement": "Km", "setting": "[6]", "result": "17 ± 1", "unit": "µM"}, {"measurement": "kcat", "setting": "[6]", "result": "0.0093 ± 0.0002", "unit": "s⁻¹"}, {"measurement": "kcat/Km", "setting": "[6]", "result": 550, "unit": "M⁻¹ s⁻¹"}, {"measurement": "Km", "setting": "[12]", "result": "13 ± 2", "unit": "µM"}, {"measurement": "kcat", "setting": "[12]", "result": "0.03 ± 0.002", "unit": "s⁻¹"}, {"measurement": "kcat/Km", "setting": "[12]", "result": 2300, "unit": "M⁻¹ s⁻¹"}, {"measurement": "Km", "setting": "[14]", "result": "11 ± 1", "unit": "µM"}, {"measurement": "kcat", "setting": "[14]", "result": "0.078 ± 0.003", "unit": "s⁻¹"}, {"measurement": "kcat/Km", "setting": "[14]", "result": 7100, "unit": "M⁻¹ s⁻¹"}]}
